This passage reports stoichiometry N, ΔT and thermal shift results from PMC9506655, “Comparative structural insight into the unidirectional catalysis of ornithine carbamoyltransferases from Psychrobacter sp. PAMC 21119” (PLoS ONE, 2022).

The target in assay [1] is catabolic ornithine carbamoyltransferase from Psychrobacter sp. PAMC 21119 (Psychrobacter sp. PAMC 21119). Briefly: AUC; sedimentation velocity, 20 mM Tris-HCl pH 8.0, 200 mM NaCl, 20°C, 42,000 RPM, SEDFIT.
Assay [2] shares this target. Briefly: SEC; Superdex 200 10/300 GL, 20 mM Tris-HCl pH 8.0, NaCl 300, 500 and 1,000 mM, protein 1 mg/mL, column calibrated with standards.
Assay [3] shares this target. Description: crystal structure; X-ray, molecular replacement; Ps_cOTC at 2.6 Å (0.1 M Tris-HCl pH 8.1, 1.3 M lithium sulfate), Ps_aOTC at 2.2 Å (0.1 M sodium acetate:HCl pH 4.6, 1 M ammonium citrate dibasic).
The target in assay [4] is T1, Ps_cOTC (Psychrobacter sp. PAMC 21119, UniProt Z9QBN3KKL3).
T1 construct: full-length arcB product, N-terminal His6 (pET-28a NdeI) kept; expressed in E. coli BL21(DE3); homotrimer in solution
T1 sequence (Z9QBN3KKL3 1-336): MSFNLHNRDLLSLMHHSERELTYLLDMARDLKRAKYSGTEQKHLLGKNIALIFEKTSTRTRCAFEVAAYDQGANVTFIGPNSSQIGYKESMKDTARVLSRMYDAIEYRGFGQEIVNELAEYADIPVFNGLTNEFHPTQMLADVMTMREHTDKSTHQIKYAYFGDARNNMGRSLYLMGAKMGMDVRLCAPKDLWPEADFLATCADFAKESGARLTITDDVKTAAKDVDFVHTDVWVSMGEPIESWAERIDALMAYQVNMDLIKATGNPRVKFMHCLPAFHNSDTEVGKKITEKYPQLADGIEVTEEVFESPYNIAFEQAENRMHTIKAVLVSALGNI
Description: label-free thermal shift (Tycho NT.[…], intrinsic fluorescence). Format: binding. Conditions: apo Tm 71.9 ± 0.0 °C; up to 50 mM CP; 20 mM Tris-HCl pH 8.0; 15 min incubation at 295 K.

The target in assay [5] is T2, Ps_aOTC (Psychrobacter sp. PAMC 21119, UniProt A0ACD6BAY5).
T2 construct: full-length argF product, N-terminal His6 (pET-28a) kept; expressed in E. coli BL21(DE3); homotrimer in solution
T2 sequence (A0ACD6BAY5 entry or part of it): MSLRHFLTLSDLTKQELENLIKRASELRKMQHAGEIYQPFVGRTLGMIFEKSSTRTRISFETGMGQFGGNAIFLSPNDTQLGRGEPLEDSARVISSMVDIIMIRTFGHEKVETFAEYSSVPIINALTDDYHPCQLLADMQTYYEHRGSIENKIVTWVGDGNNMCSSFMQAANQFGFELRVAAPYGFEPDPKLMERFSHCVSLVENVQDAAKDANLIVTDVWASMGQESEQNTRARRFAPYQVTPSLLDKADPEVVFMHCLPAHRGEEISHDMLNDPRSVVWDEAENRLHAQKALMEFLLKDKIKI
The assay is described as above. Format: binding. Conditions: apo Tm 53.7 ± 0.4 °C; saturating at 20 mM CP; 20 mM Tris-HCl pH 8.0; 15 min incubation at 295 K.

In assay [6] the target is T1, Ps_cOTC. The description is as above. Format: binding. Conditions: with 50 mM CP (no shift by NVA alone); 20 mM Tris-HCl pH 8.0; 15 min incubation at 295 K.
Assay [7] addresses T2, Ps_aOTC. Described as above. Format: binding. Conditions: with 5 mM CP (no shift by NVA alone); 20 mM Tris-HCl pH 8.0; 15 min incubation at 295 K.
In assay [8] the target is anabolic ornithine carbamoyltransferase from Psychrobacter sp. PAMC 21119 (Psychrobacter sp. PAMC 21119). Briefly: AUC; sedimentation velocity, 20 mM Tris-HCl pH 8.0, 200 mM NaCl, 20°C, 42,000 RPM, SEDFIT.
The target is the same in assay [9]. Description: SEC; Superdex 200 10/300 GL, 20 mM Tris-HCl pH 8.0, NaCl 300, 500 and 1,000 mM, protein 1 mg/mL, column calibrated with standards. (SEC sorts molecules by how far they enter the pores of the column.)
Assay [10] has the same target. Briefly: crystal structure; X-ray, molecular replacement; Ps_cOTC at 2.6 Å (0.1 M Tris-HCl pH 8.1, 1.3 M lithium sulfate), Ps_aOTC at 2.2 Å (0.1 M sodium acetate:HCl pH 4.6, 1 M ammonium citrate dibasic).

For the compound “catabolic ornithine carbamoyltransferase from Psychrobacter sp. PAMC 21119 (enzyme)”, the stoichiometry N in assay [1], in assay [2] and in [3] was 3 in each case.

On to `NC(=O)OP(=O)(O)O` [CP, carbamoyl phosphate], for which the ΔT turned out to be 1.3 °C at Ps_cOTC [4] and 6.5 °C at Ps_aOTC [5].

In the case of `CCC[C@H](N)C(=O)O` [NVA, l-norvaline], the thermal shift entry at Ps_cOTC [6] was “following CP binding, NVA can bind to Ps_cOTC and Ps_aOTC”; on Ps_aOTC [7], “following CP binding, NVA can bind to Ps_cOTC and Ps_aOTC”.

Consider “anabolic ornithine carbamoyltransferase from Psychrobacter sp. PAMC 21119 (enzyme)”, for which the stoichiometry N in [8], in assay [9] and in assay [10] was 3 throughout.
